Results published in patent US20210379147A1, “METHOD AND SYSTEM FOR TREATING CANCER UTILIZING TINAGL1” (The Trustees of Princeton University, priority 2018, published 2021).

Assays:
SUM159-M1a tumor cells = assay: 3D in vitro tumor sphere growth assay; type: cell-based, human
Method: To directly test the tumor-specific inhibitory effects of Tinagl1, a 3D in vitro tumor sphere growth assay was performed. Tinagl1-overexpressing SUM159-M1a tumor cells formed significant fewer and smaller spheres.

EGFR dimerization = biological target: T1, EGFR dimerization (Homo sapiens, UniProt P00533); assay: EGFR dimerization in LM2 cells (co-IP of EGFR-GFP/EGFR-Myc; DSS cross-linking); type: cell-based; conditions: 1 μg/ml r-Tinagl1 1 hr
T1 construct: host or cells: LM2
Method: FIG. 14A is an image of WB analyses where LM2 cells were transfected with plasmids to overexpress GFP-EGFR and EGFR-Myc. 48 hr after transfection, the cells were treated with or without 1 μg/ml of r-Tinagl1 for 1 hr, followed by 10 min of 1 ng/ml EGF treatment, then collected and immunoprecipitated with either IgG or anti-Myc antibody, after which the IP samples were subjected to WB analysis.
FIG. 14B is a graph illustrating the quantified amount of EGFR-GFP that interacts with EGFR-Myc, normalized to PBS treatment group.
FIG. 14C is an image of WB analyses where LM2 cells stably expressed EGFR-Myc were pretreated with PBS or 1 μg/ml of r-Tinagl1 for 1 hr, treated with 1 ng/ml of EGF for another 10 min, then cells were collected and the dimers were cross-linked with disuccinimidyl suberate (DSS) treatment, followed by WB analysis.
FIG. 14D is a graph illustrating the ratio of dimerized EGFR in each treatment group that was quantified.
Whether Tinagl1 prevents EGFR dimerization independent of interfering with EGF binding to EGFR was tested. […] To further validate this conclusion, LM2 cells with EGFR-Myc stably expressed were treated with EGF or r-Tinagl1 alone or combination. […]
The assay was performed as previously described (Wang et al., 2015). […] Finally, the cells were then lysed with IP lysis buffer for 20 min on ice, and EGFR dimerization was analyzed by WB.

[1] = biological target: T2, EGFR extracellular domain recombinant protein (Homo sapiens, UniProt P00533); assay: IP between recombinant Tinagl1 and recombinant His-tagged EGFR protein; type: binding; conditions: 5 μg each protein in PBS, IP with His antibody
T2 construct: EGFR extracellular domain recombinant protein was purchased from Novoprotein (CI61); purchased Novoprotein CI61
Method: FIG. 13B is an image of a WB assay where 5 μg each of recombinant His-tagged EGFR protein and recombinant Tinagl1 protein were added into 1.5 ml of PBS. 100 μl of combined solution was transferred to a new tube and served as input, and the rest was split into two tubes and IP with 2 μg of IgG or His antibody respectively; the IP samples were washed with PBS and analyzed with WB.
Immunoprecipitation (IP) and western blotting (WB) analysis. For an IP experiment, cells were collected in 1.5 ml EP tube when they reached to 100% confluency in 10 or 15 cm dish as indicated. 1 ml of IP lysis buffer (20 mM Tris pH7.4, 0.15 M NaCl, 1 mM EDTA, 1 mM EGTA, 1% Tx-100) with complete protease inhibitor cocktail (Roche, 14493900) was added and put on ice for 20 min. Meanwhile, culture media was 100× concentrated and mixed with the cell lysates. The samples were centrifuged, 100 μl of the supernatant was transferred to a new tube as input, and the rest was incubated with 2 μg of IgG, anti-HA, anti-Myc, anti-Integrin subunit β1, anti-Integrin subunit α5 or anti-EGFR (as indicated in each experiment) overnight at 4° C. (recombinant proteins may be added at this step as indicated in each experiment). 30 μL of protein A/G agarose beads (Santa Cruz, sc-2003) was then added in each sample for another 2 hours at 4° C. the next day. […] The IP samples were washed with PBS and analyzed with WB. […]

B1: r-Tinagl1: full length recombinant human Tinagl1 with 6×His tag at the C-terminus [SEQ ID NO.: 24], expressed in HEK293T cells (protein, listed as Homo sapiens)
chain: MWRCPLGLLLLLPLAGHLALGAQQGRGRRELAPGLHLRGIRDAGGRYCQEQDLCCRGRADDCALPYLGAICYCDLFCNRTVSDCCPDFWDFCLGVPPPFPPIQGCMHGGRIYPVLGTYWDNCNRCTCQENRQWQCDQEPCLVDPDMIKAINQGNYGWQAGNHSAFWGMTLDEGIRYRLGTIRPSSSVMNMHEIYTVLNPGEVLPTAFEASEKWPNLIHEPLDQGNCAGSWAFSTAAVASDRVSIHSLGHMTPVLSPQNLLSCDTHQQQGCRGGRLDGAWWFLRRRGVVSDHCYPFSGRERDEAGPAPPCMMHSRAMGRGKRQATAHCPNSYVNNNDIYQVTPVYRLGSNDKEIMKELMENGPVQALMEVHEDFFLYKGGIYSHTPVSLGRPERYRRHGTHSVKITGWGEETLPDGRTLKYWTAANSWGPAWGERGHFRIVRGVNECDIESFVLGVWGRVGMEDMGHHVDHHHHHH
modifications: C-terminal 6xHis tag
Q: With B1 as the molecule, how does the “number and size of tumor spheres” value (SUM159-M1a tumor cells) read?
A: Its value is “reduced the number and size of tumor spheres”.

Q: What about the “amount of EGFR-GFP bound by EGFR-Myc” value (EGFR dimerization; in the presence of EGF) of the same molecule?
A: The value was “significantly reduced the amount of EGFR-GFP bound by EGFR-Myc”.

Q: What about the “dimer form of EGFR (DSS cross-linking)” value (EGFR dimerization; then EGF) of the same molecule?
A: The value was “reduced”.

Q: And the “direct interaction with EGFR” value [1]?
A: Its value is “confirmed the direct interaction”.
